Laboratory results reported in patent US20260242492A1 (JOINT STOCK COMPANY BIOCAD, published 2026).

B1: antibody-like molecule 08-003 (binds PD1 and CSF1R) (bispecific antibody, human IgG1, kappa, L234A L235A)
heavy 1: QVQLVQSGGGLVQPGGSLRLSCAASGFTFSSYWMYWVRQVPGKGLEWVSAIDTGGGRTYYADSVKGRFAISRVNAKNTMYLQMNSLRAEDTAVYYCARDEGGGTGWGVLKDWPYGLDAWGQGTLVTVSSASTKGPSVFPLAPSSKSTSGGTAALGCLVKDYFPEPVTVSWNSGALTSGVHTFPAVLQSSGLYSLSSVVTVPSSSLGTQTYICNVNHKPSNTKVDKRVEPKSCDKTHTCPPCPAPEAAGGPSVFLFPPKPKDTLYITREPEVTCVVVDVSHEDPEVKFNWYVDGVEVHNAKTKPREEQYNSTYRVVSVLTVLHQDWLNGKEYKCKVSNKALPAPIEKTISKAKGQPREPQVCTLPPSRDELTKNQVSLSCAVKGFYPSDIAVEWESNGQPENNYKTTPPVLDSDGSFFLVSKLTVDKSRWQQGNVFSCSVMHEALHNHYTQKSLSLSPGK
light 1: QPVLTQPLSVSVALGQTARITCGGNNIGSKNVHWYQQKPGQAPVLVIYRDSNRPSGIPERFSGSNSGNTATLTISRAQAGDEADYYCQVWDSSTAVFGTGTKLTVLQRTVAAPSVFIFPPSDEQLKSGTASVVCLLNNFYPREAKVQWKVDNALQSGNSQESVTEQDSKDSTYSLSSTLTLSKADYEKHKVYACEVTHQGLSSPVTKSFNRGEC
heavy 2: not shown
light 2: QAGLTQPPSVSVAPGQTARITCGGNNIGSKSVHWYQQKPGQAPVLVVYGDSDRPSGIPERFSGSNSGNTATLTISRVEAGDEADYYCQVWDISSDHVVFGGGTQLTVLQRQVKPEAWLSKGPSPGPGRLQLVCHVSGFYPKPVWVMWMRGEQEQQGTQLGDILPNADWTWYLRATLDVADGEAAGLSCRVKHSSLEGQDIILYWRGSC
notes: Four distinct chains: Prolgolimab Fab arm (hole) and anti-CSF1R Fab-like arm with b2m/CD1b alpha3 dimerization unit (knob)
B2: antibody-like molecule 08-004 (binds CSF1R and PD1) (bispecific antibody, human IgG1, kappa, L234A L235A)
heavy 1: QVQLVESGGGLVRPGGSLRLSCAASEFTFDDYAMSWVRQAPGKGLEWVSAISWNGGSTNYADSVKGRFTISRDNAKNSLYLQMNSLRAEDTALYYCASTVEVAHRRLYKYLEVWGQGTLVTVSSASTKGPSVFPLAPSSKSTSGGTAALGCLVKDYFPEPVTVSWNSGALTSGVHTFPAVLQSSGLYSLSSVVTVPSSSLGTQTYICNVNHKPSNTKVDKRVEPKSCDKTHTCPPCPAPEAAGGPSVFLFPPKPKDTLYITREPEVTCVVVDVSHEDPEVKFNWYVDGVEVHNAKTKPREEQYNSTYRVVSVLTVLHQDWLNGKEYKCKVSNKALPAPIEKTISKAKGQPREPQVCTLPPSRDELTKNQVSLSCAVKGFYPSDIAVEWESNGQPENNYKTTPPVLDSDGSFFLVSKLTVDKSRWQQGNVFSCSVMHEALHNHYTQKSLSLSPGK
light 1: QAGLTQPPSVSVAPGQTARITCGGNNIGSKSVHWYQQKPGQAPVLVVYGDSDRPSGIPERFSGSNSGNTATLTISRVEAGDEADYYCQVWDISSDHVVFGGGTQLTVLRTVAAPSVFIFPPSDEQLKSGTASVVCLLNNFYPREAKVQWKVDNALQSGNSQESVTEQDSKDSTYSLSSTLTLSKADYEKHKVYACEVTHQGLSSPVTKSFNRGEC
heavy 2: not shown
light 2: QPVLTQPLSVSVALGQTARITCGGNNIGSKNVHWYQQKPGQAPVLVIYRDSNRPSGIPERFSGSNSGNTATLTISRAQAGDEADYYCQVWDSSTAVFGTGTKLTVLQQRQVKPEAWLSKGPSPGPGRLQLVCHVSGFYPKPVWVMWMRGEQEQQGTQLGDILPNADWTWYLRATLDVADGEAAGLSCRVKHSSLEGQDIILYWRGSC
notes: Four distinct chains: anti-CSF1R Fab arm (hole) and Prolgolimab Fab-like arm with b2m/CD1b alpha3 dimerization unit (knob)
B3: antibody-like molecule 08-005 (binds CD20 and CSF1R) (bispecific antibody, human IgG1, kappa, L234A L235A)
heavy 1: EVQLVESGGGLVQPGGSLRLSCAASGYTFTSYNMHWVRQAPGKGLEWVGAIYPGNGDTSYNQKFKGRFTISVDKSKNTLYLQMNSLRAEDTAVYYCARVVYYSNSYWYFDVWGQGTLVTVSSASTKGPSVFPLAPSSKSTSGGTAALGCLVKDYFPEPVTVSWNSGALTSGVHTFPAVLQSSGLYSLSSVVTVPSSSLGTQTYICNVNHKPSNTKVDKRVEPKSCDKTHTCPPCPAPEAAGGPSVFLFPPKPKDTLYITREPEVTCVVVDVSHEDPEVKFNWYVDGVEVHNAKTKPREEQYNSTYRVVSVLTVLHQDWLNGKEYKCKVSNKALPAPIEKTISKAKGQPREPQVCTLPPSRDELTKNQVSLSCAVKGFYPSDIAVEWESNGQPENNYKTTPPVLDSDGSFFLVSKLTVDKSRWQQGNVFSCSVMHEALHNHYTQKSLSLSPGK
light 1: DIQMTQSPSSLSASVGDRVTITCRASSSVSYMHWYQQKPGKAPKPLIYAPSNLASGVPSRFSGSGSGTDFTLTISSLQPEDFATYYCQQWSFNPPTFGQGTKVEIKRTVAAPSVFIFPPSDEQLKSGTASVVCLLNNFYPREAKVQWKVDNALQSGNSQESVTEQDSKDSTYSLSSTLTLSKADYEKHKVYACEVTHQGLSSPVTKSFNRGEC
heavy 2: not shown
light 2: B1 light 2
notes: Four distinct chains: Ocrelizumab Fab arm (hole) and anti-CSF1R Fab-like arm with b2m/CD1b alpha3 dimerization unit (knob)
B4: antibody-like molecule 08-006 (binds CSF1R and CD20) (bispecific antibody, human IgG1, kappa, L234A L235A)
heavy 1: B2 heavy 1
light 1: B2 light 1
heavy 2: not shown
light 2: DIQMTQSPSSLSASVGDRVTITCRASSSVSYMHWYQQKPGKAPKPLIYAPSNLASGVPSRFSGSGSGTDFTLTISSLQPEDFATYYCQQWSFNPPTFGQGTKVEIKQRQVKPEAWLSKGPSPGPGRLQLVCHVSGFYPKPVWVMWMRGEQEQQGTQLGDILPNADWTWYLRATLDVADGEAAGLSCRVKHSSLEGQDIILYWRGSC
notes: Four distinct chains: anti-CSF1R Fab arm (hole) and Ocrelizumab Fab-like arm with b2m/CD1b alpha3 dimerization unit (knob)

Assays:
[1] = target: T1, extracellular domain of the human CSF1R protein (hCSF1R_His) (human, UniProt P07333 20-512); experiment: BLI (Octet RED 384), antibody-like molecule on ProA sensors, hCSF1R_His analyte 174.2 nM, 1:1 model
T1 construct: range 20-512; Made in CHO cells, molecular weight 57.4 kDa as printed; not shown: C-terminal His-tag and FLAG-tag
T1 sequence (P07333 20-512 limits assumed): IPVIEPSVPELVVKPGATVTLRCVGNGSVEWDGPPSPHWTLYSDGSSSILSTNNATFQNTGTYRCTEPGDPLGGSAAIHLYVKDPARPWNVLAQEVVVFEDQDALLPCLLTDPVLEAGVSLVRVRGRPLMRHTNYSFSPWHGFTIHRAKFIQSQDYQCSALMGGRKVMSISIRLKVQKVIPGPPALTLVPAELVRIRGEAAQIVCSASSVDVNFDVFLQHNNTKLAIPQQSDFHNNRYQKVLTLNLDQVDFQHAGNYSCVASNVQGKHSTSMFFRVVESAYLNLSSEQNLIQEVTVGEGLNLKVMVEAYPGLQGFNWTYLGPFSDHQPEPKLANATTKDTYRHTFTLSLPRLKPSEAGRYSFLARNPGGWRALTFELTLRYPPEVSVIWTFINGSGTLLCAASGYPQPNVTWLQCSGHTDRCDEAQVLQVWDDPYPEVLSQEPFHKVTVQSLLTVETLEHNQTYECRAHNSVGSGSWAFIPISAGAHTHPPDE
Procedure: (§1) Experiments were carried out using a kinetic buffer solution (hereinafter referred to as 1×KB); volume fraction of added Tween 20 was 0.1%; mass fraction of added BSA (bovine serum albumin) was 0.1%; pH 7.4. Before the measurement, the ProA sensors were regenerated with a solution of 50 mM glycine and hydrochloric acid, pH 1.8 (5 seconds in the regenerating solution, 5 seconds in 1×KB, three repetitions).
(§2) In the case of the hPDlex-H6F and hCSF1R_His antigens, the Protein A (ProA) biosensors (ForteBio) were immersed in a solution with antibody-like molecules at a concentration of 10 µg/ml for 300 seconds to immobilize same. The baseline was recorded in 1×KB for 120 seconds. Sensors loaded with the antibody-like molecule were then immersed into wells containing a solution of the target antigen (analyte) in a kinetic buffer for 300 seconds. Measurements were performed for solutions with hPDlex-H6F analyte at concentrations of 10 µg/ml (485.4 nM), for solutions with hCSF1R_His analyte at concentrations of 10 µg/ml (174.2 nM). Complex dissociation in 1×KB was then detected for 600 seconds.
(§3) To obtain numerical values of kinetic constants (kon is the on/association rate constant, kdis is the dissociation rate constant, KD is the equilibrium dissociation constant or affinity constant), the resulting sensograms were processed according to the 1:1 interaction model using Global Fit (selection of one set of kon, kdis, KD constants to analyze several sensograms of different concentrations) of the ForteBio Octet Data Analysis 9.0 software.

[2] = target: T2, extracellular domain of the human PD-1 protein (hPD1ex-H6F) (human, UniProt Q15116 21-170); experiment: BLI (Octet RED 384), antibody-like molecule on ProA sensors, hPD1ex-H6F analyte 485.4 nM, 1:1 model
T2 construct: Made in CHO cells, molecular weight 20.6 kDa as printed; also called hPDlex-H6F
T2 sequence (Q15116 21-170 limits assumed, form in doubt): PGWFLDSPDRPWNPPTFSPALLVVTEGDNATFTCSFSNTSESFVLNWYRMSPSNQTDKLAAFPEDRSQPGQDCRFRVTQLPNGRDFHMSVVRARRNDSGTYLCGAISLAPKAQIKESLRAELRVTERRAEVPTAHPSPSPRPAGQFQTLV
Procedure: as §1, §2, §3

[3] = target: T3, biotinylated peptide [NH2]CEPANPSEKNSPSTQYCYSIQS[CH2CH2]biotin comprising a fragment of the human CD20 … (human, [NH2] at the N-terminus; [CH2CH2]biotin at the C-terminus (so in the source)); experiment: BLI (Octet RED 384), biotinylated CD20 peptide on SAX sensors, antibody-like molecule as analyte, 1:1 model, global fit
T3 construct: Immobilized on streptavidin (SAX) sensors; also called CD20 peptide
T3 peptide: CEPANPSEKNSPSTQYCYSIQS
Procedure: as §1
In the case of biotinylated […], the peptide at a concentration of 2.5 μg/ml was immobilized on the surface of SAX sensors (High Precision Streptavidin (SAX) biosensors, ForteBio) for 300 seconds. The baseline was recorded in a 1×KB solution for 120 seconds. Sensors loaded with peptide were then immersed into wells containing the solution of antibody-like molecule (analyte) in 1×KB for 300 seconds. Measurements were performed for solutions with analyte (antibody-like molecule in case of CD20 peptide) at concentrations […] and 75 µg/ml. Complex dissociation was recorded in 1×KB for 60 seconds.
as §3

| Binder | Kd [1] | koff [1] | kon [1] | Kd [2] | koff [2] | kon [2] | Kd [3] | koff [3] | kon [3] |
| --- | --- | --- | --- | --- | --- | --- | --- | --- | --- |
| B1 | 1.44 nM | 0.000238 s⁻¹ | 165000 M⁻¹ s⁻¹ | 12.4 nM | 0.000487 s⁻¹ | 39200 M⁻¹ s⁻¹ |  |  |  |
| B2 | 2.23 nM | 0.000443 s⁻¹ | 199000 M⁻¹ s⁻¹ | 13.7 nM | 0.000568 s⁻¹ | 41400 M⁻¹ s⁻¹ |  |  |  |
| B3 | 1.4 nM | 0.000253 s⁻¹ | 181000 M⁻¹ s⁻¹ |  |  |  | 483 nM | 0.0581 s⁻¹ | 120000 M⁻¹ s⁻¹ |
| B4 | 1.92 nM | 0.000372 s⁻¹ | 194000 M⁻¹ s⁻¹ |  |  |  | 2600 nM | 0.418 s⁻¹ | 161000 M⁻¹ s⁻¹ |
